{"source": "patent US20040091907A1", "about": "(SUGEN, published 2004)", "key": {"[1]": {"molecular_target": "T1, Glutathione-s-transferase (GST) fused PAK4 (residues 291-591) (human, UniProt O96013 291-591)", "T1 construct": "Bait of the phage display screen; the paragraphs that tell the kinase results say only PAK4; also called PAK4 kinase; not shown: glutathione-S-transferase (GST), protein product of the SJ26 gene, fusion partner from pGEX-4T", "experiment": "phage display screen, GST-PAK4 (291-591) on glutathione beads, MCF7 cDNA library", "excerpt": "The phage display hits isolated in the screen corresponded to in-frame fusions derived from several distinct genes. One fragment was derived from the Maguin-2-like gene. Two other hits were derived from the GEF-H1S splice variant of GEF-H1.\nThis expression vector allowed production and expression of a gene appropriately inserted, as a fusion protein where the fusion partner is the protein product of the SJ26 gene glutathione-s-transferase (GST). The fusion partner GST allows for affinity immobilization on glutathione sepharose 4B matrix (Amersham Biosciences Cat # 17-0756-01) also known as glutathione beads. The PAK4 polypeptide immobilized to these beads was incubated with a lysate containing phage particles expressing a library of peptides derived from MCF7 (breast carcinoma tissue culture cells available from ATCC, USA) cDNA. See, Zozulya et al., Nat. Biotechnol., 17(12): p. 1193-8, 1999. Upon sequencing many of the candidates obtained in this screen, the GEF-H1S polypeptide was discovered in the clone designated 13-8. Sequencing was performed on a ABI prizm machine using standard methods provided by the manufacturer (Applied Biosystems, USA)."}, "[2]": {"molecular_target": "T2, amino-terminal regulatory domain of PAK4 alone (amino acids 1-309) (human, UniProt O96013 1-309)", "T2 construct": "Over-expressed in 293T cells, used as cell lysate", "T2 sequence (looked up)": "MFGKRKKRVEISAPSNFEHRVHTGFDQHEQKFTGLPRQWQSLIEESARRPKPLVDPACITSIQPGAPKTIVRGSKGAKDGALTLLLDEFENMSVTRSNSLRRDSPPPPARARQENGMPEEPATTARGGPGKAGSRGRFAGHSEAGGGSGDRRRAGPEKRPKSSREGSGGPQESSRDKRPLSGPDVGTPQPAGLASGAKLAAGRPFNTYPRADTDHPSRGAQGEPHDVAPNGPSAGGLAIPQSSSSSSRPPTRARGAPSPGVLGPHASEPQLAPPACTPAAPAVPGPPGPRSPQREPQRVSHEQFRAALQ", "experiment": "GST pull-down on glutathione beads from 293T lysate, myc immunoblot", "method": "(§1) An equivalent amount of beads and excess lysates (500 ug) were used. Eluates of beads and total lysates were analysed by SDS-PAGE and immunoblotted with myc or GEF-H1 antiserum; (c) represents a PAK4 gene schematic outlining the regions of PAK4 used to identify the GEF-H1 interaction domain (GID). d, alignment of the GID defined by the minimal binding region of PAK4 with PAK5 and PAK6.\nThese fusion proteins were bound to glutathione beads and utilized in binding assays with 293T lysates expressing exogenous PAK4.\nThe GST immobilized GEF-H1S polypeptide was used to conduct immunoprecipitation from the 293T cell extracts. The resulting protein complexes on the beads were identified by separating on SDS-PAGE followed by Western blotting to identify proteins that are present. The Western blot technique (Renart et al., Methods Enzymol., 104:455-60, 1984) is universally used to identify proteins using specific immunoreagents like antibodies. […] PAK4 was not present after immunoprecipitation with immobilized fusion partner GST. This interaction was limited by the presence or absence of GEF-H1S."}, "[3]": {"molecular_target": "T3, GFP-GEF-H1 (human, UniProt Q92974 93-986)", "T3 construct": "The legend says GFP-GEF-H1, the text GEF-H1S; also called GEF-H1S; EGFP-GEF-H1S; not shown: EGFP from vector pEGFP-C1 (Clontech)", "T3 sequence": "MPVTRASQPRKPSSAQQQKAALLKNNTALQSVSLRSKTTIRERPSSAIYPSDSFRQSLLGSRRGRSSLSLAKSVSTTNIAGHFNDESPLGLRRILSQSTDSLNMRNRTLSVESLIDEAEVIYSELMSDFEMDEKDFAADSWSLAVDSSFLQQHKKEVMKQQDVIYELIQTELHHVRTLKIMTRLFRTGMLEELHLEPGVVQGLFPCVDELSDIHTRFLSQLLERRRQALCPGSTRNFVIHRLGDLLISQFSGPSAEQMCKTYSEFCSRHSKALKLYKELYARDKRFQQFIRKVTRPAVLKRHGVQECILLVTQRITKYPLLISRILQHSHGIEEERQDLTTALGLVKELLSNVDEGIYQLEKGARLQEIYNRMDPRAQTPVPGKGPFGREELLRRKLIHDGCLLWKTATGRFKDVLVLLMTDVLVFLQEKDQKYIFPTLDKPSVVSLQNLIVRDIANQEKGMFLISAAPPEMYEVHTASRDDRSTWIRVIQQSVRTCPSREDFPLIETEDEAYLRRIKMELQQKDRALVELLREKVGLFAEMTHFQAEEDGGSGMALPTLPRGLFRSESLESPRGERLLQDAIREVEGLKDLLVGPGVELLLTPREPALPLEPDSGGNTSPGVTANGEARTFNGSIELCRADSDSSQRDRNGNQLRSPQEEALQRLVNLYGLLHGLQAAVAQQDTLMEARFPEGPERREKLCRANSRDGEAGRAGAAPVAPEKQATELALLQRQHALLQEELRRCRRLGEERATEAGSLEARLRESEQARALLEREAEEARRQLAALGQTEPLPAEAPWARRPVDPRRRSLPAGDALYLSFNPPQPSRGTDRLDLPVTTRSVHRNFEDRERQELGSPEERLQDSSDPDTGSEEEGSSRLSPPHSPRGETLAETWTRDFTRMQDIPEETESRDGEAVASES", "experiment": "biotinylated peptide on streptavidin beads, pull-down from 293T lysate, GEF-H1 immunoblot", "method": "as §1, with “FIG. 1: Direct binding of GEF-H1 to PAK4. […] An” for “An”\nBiotinylated peptides derived from the N-terminal region of PAK4 sequence were used to further map the GEF-H1 binding site. […] Based on the homology within the GID of PAK4 it is possible that PAK5 and PAK6 also interact with GEF-H1 or related proteins."}}, "data": [{"binder": "GEF-H1S polypeptide of phage display clone 13-8 (amino acids 763-921) (other, Two hits came from GEF-H1S; only this one has stated limits; also called phage clone 13.8; GEF-H1 phage display hit; not shown: phage display fusion partner) LRESEQARALLEREAEEARRQLAALGQTEPLPAEAPWARRPVDPRRRSLPAGDALYLSFNPPQPSRGTDRLDLPVTTRSVHRNFEDRERQELGSPEERLQDSSDPDTGSEEEGSSRLSPPHSPRGETLAETWTRDFTRMQDIPEETESRDGEAVASES", "values": [{"measurement": "binding result", "setting": "[1]", "value": "binds"}]}, {"binder": "GST-GEF-H1S (aa763-921) (other, not shown: glutathione-S-transferase (GST), protein product of the SJ26 gene, fusion partner from pGEX-4T) LRESEQARALLEREAEEARRQLAALGQTEPLPAEAPWARRPVDPRRRSLPAGDALYLSFNPPQPSRGTDRLDLPVTTRSVHRNFEDRERQELGSPEERLQDSSDPDTGSEEEGSSRLSPPHSPRGETLAETWTRDFTRMQDIPEETESRDGEAVASES", "values": [{"measurement": "binding result", "setting": "[2]", "value": "no binding"}]}, {"binder": "biotinylated PAK4 peptide, amino acids 291-355 (peptide, UniProt O96013 291-355, looked up, biotinylated (position not given), Linked to streptavidin beads) peptide: SPQREPQRVSHEQFRAALQLVVDPGDPRSYLDNFIKIGEGSTGIVCIATVRSSGKLVAVKKMDLR", "values": [{"measurement": "binding result", "setting": "[3]", "value": "no binding"}]}]}
